What was measured:
Type in all cases: cell-based
gene editing with Cas9 = assay: Screen of 322 new SSAP proteins, gene editing activity with Cas9 (Table 5); design: Cas9 with SSAP activity: scale not given here
Source text: (§1) 322 new SSAP proteins were identified from sequence data, synthesized, and screened for activity with Cas9 and dCas9. Gene editing activities are shown below in Table 5, followed by amino acid sequences of the proteins.

gene editing with dCas9 = assay: Screen of 322 new SSAP proteins, gene editing activity with dCas9 (Table 5); design: dCas9 with SSAP activity: scale not given here
Source text: as §1

[1] = system: gene editing with Cas9 and dCas9; assay: Screen of 322 new SSAP proteins, activity across all experiments (Cas9 and dCas9, Table 5); design: scale not given here
Source text: as §1

B1: SSAP_121: SEQ ID NO: 290; Bacillus sp. JAS24-2 (protein, listed as Bacillus sp.)
chain: ATNKDVKNQLANRKASAPVTTEQTVEAYMKKMGPKMAEVLPKHMDMDRMSRIALTTIRTNPKLLECSVPSLMGAVMSAVQLGLEPGLLGHCYILPYKSEATFIIGYKGMIDLARRSGHIQSIYAHAVYENDEFEYELGLHPQLKHKPSFGDRGEFIGAYAVAHFKDGGHQMEFMPKSEIEKRRGRSASANSNYSPWKTDYEEMAKKTVVRYMFKYLPISIEVQSQAQQDEVVRKDITEEPEFIEVEQQTEGDGQGDFVIEGE
- Cas9 with SSAP activity (gene editing with Cas9): −0.279
- Cas9 with SSAP activity (normalized) (gene editing with Cas9): −0.275
- dCas9 with SSAP activity (gene editing with dCas9): 1.664
- dCas9 with SSAP activity (normalized) (gene editing with dCas9): 1.531
- Activity across all experiments [1]: 0.692

B2: SSAP_108: SEQ ID NO: 277; Rummeliibacillus stabekisii (protein, listed as Rummeliibacillus stabekisii)
chain: ATTTELKEQMKQQAPAQTKKPKTIEDYMKQMAPAMAEALPKHMSVDRLTRLAMTTIRTTPALRQADVSSLLGAVMQAAQLGLEPGLLGQCYLLPFKNKKKAITEVQFIIGYKGMIDLARRSGHIQSIYSHAVFENDVFEYELGLEPKLKHTPTMSTDKGAFIGAYAVAHFKDGGHQFEFMSKADIEKRKGRSKAANSDYSPWLTDYEEMAKKTVIRHMWKYLPISVEMQEQVAYDEGVGRSIKDVTPEEDVFVQAPDEILEAEATEA
- Cas9 with SSAP activity (gene editing with Cas9): 0.069
- Cas9 with SSAP activity (normalized) (gene editing with Cas9): 0.068
- dCas9 with SSAP activity (gene editing with dCas9): −3.682
- dCas9 with SSAP activity (normalized) (gene editing with dCas9): −0.539
- Activity across all experiments [1]: −1.807

B3: SSAP_285: SEQ ID NO: 454; Chitinophaga lutea (protein, listed as Chitinophaga lutea)
chain: SNVNAPAAPVKSKIEVLKDIMNAPSVQEQFQNALRENSGVFVASVIDLFNSDTYLQNCEPKQVVMECLKAATLKLPINKNLGFAYVVPYKSNGKQIPQFQIGYKGYIQLAMRTGQYRIINADKVYEGEYRTKNKLTGEFDLSGTATSETVVGYFAHIEMLNGFAKTLYMTKEKVAAHAKKYSKSFGKETSPWHTEFDAMALKTVLRNLLSHYGYLSVEMMGAMNADIESDQVGSEVSQTINDKANKQEMTFDDAEVVDDDEKEQNPI
- Cas9 with SSAP activity (gene editing with Cas9): −1.178
- Cas9 with SSAP activity (normalized) (gene editing with Cas9): −0.366
- dCas9 with SSAP activity (gene editing with dCas9): −3.704
- dCas9 with SSAP activity (normalized) (gene editing with dCas9): −0.608
- Activity across all experiments [1]: −2.441

B4: SSAP_133: SEQ ID NO: 302; Lacrimispora celerecrescens (protein, listed as Lacrimispora celerecrescens)
chain: SDVKQELEKRAAGGGSQSQSVKLTKNMTIVDMVKALEPEIKRALPSILTPERFTRMALSAINNTPKLGECTPMSFIAALMNAAQLGLEPNTPLGQAYLIPYKNKGVLECQFQLGYRGLIDLAYRNDRMQSIEAQVVYENDEFSYELGLHPSLTHRPSFDEPGEIRAFYAIFRLDNGGFRFEVMSKSYVDAYATKYSKAFTSDFSPWKNNYEGMAKKTVIKQLLKYAPIKSDFQKAITLDETVKTQLSIDMSEIRNECLPDTSENSEVA
- Cas9 with SSAP activity (gene editing with Cas9): −4.946
- Cas9 with SSAP activity (normalized) (gene editing with Cas9): −1.095
- dCas9 with SSAP activity (gene editing with dCas9): −3.605
- dCas9 with SSAP activity (normalized) (gene editing with dCas9): −0.658
- Activity across all experiments [1]: −4.276

B5: SSAP_225: SEQ ID NO: 394; Actinocrispum wychmicini (protein, listed as Actinocrispum wychmicini)
chain: SQTVTAAVAQRDNGAQALIAKYRTDFAQVLPSHLRPTTFVRLSQGLLRRNVKLAEAAERNPASFLAALLECARLGHDPGTDQFALVPFNDRKRNTVEVVGIEQYQGVIERMYRAGAVRSVKAEVVRAADPFEYAPDVMDRPGHKPNWFADRGELIGVYAYAEFFDGSTSRVVMMNRETVMAHKAKSRGATSEDSPWQAWEESMWLKTAVHELEKWVPTSSEDRRAARDGTADPAPVEVPRVADEVLDADLVEDDHADHPTATPTGDVR
- Cas9 with SSAP activity (gene editing with Cas9): −0.830
- Cas9 with SSAP activity (normalized) (gene editing with Cas9): −0.252
- dCas9 with SSAP activity (gene editing with dCas9): −3.577
- dCas9 with SSAP activity (normalized) (gene editing with dCas9): −0.602
- Activity across all experiments [1]: −2.204

B6: SSAP_267: SEQ ID NO: 436; Clostridium combesii (protein, listed as Clostridium combesii)
chain: ANTKAIVLQETANNLNTLLKAKVKALPKGFNETRFLQNCMTVLQDTRNIEKCNSVSVARTMLKGAFLGLDFFSKECYAIPYNDYKTGKCHLEFQTDYKGERKLMKQYSVRPIKDIYAKVVREGDKFEEIIEKGIPTINFRPKPFSNEKIIGVFAVVLFEDGGLLYETMSVEDVEKIKVGFAKRDKEGNYSKAWTATPEEMYKKTVIRRLRKSVELEFDSVEQQKTYEEASEFDVKRDEEVKEEASPFENVDFEEAEEGNTIEAKQE
- Cas9 with SSAP activity (gene editing with Cas9): −0.224
- Cas9 with SSAP activity (normalized) (gene editing with Cas9): −0.145
- dCas9 with SSAP activity (gene editing with dCas9): −3.571
- dCas9 with SSAP activity (normalized) (gene editing with dCas9): −0.553
- Activity across all experiments [1]: −1.897

B7: SSAP_21: SEQ ID NO: 190; Cellulosilyticum lentocellum (protein, listed as Cellulosilyticum lentocellum)
chain: SDKKELVLKETHSRLNQLLATKMEAMPKDFNQTRFLQNCMTVLQDTKGIENCHPVSIARTLLKGAFLGLDFFQRECYAIPYGGELQFQTDYKGETKMAKKYSIRDIKDIYAKVVRKGDEFKEEIVAGQQVVDFKPLPFNDAEIIGAFAVVLYQDGGMEYETMSTKQIEGIRDNFSKMKNGLMWTKTPEEAYKKTVLRRLTKKIEKDFASIDQAKAYEESSDMQFKQDEQKQDAKDPFADAVDVEFTEETEGQVRLDGEADGAK
- Cas9 with SSAP activity (gene editing with Cas9): −0.774
- Cas9 with SSAP activity (normalized) (gene editing with Cas9): −0.320
- dCas9 with SSAP activity (gene editing with dCas9): −3.610
- dCas9 with SSAP activity (normalized) (gene editing with dCas9): −0.537
- Activity across all experiments [1]: −2.192

B8: SSAP_160: SEQ ID NO: 329; Veillonellaceae bacterium DNF00626 (protein)
chain: KTTGGLQQQQQQQAQALQNGGTTLKGYLQAMMPEIKKALPTVMTPERFTRIVMTTISTNPALQNCTPQSFLGAVMQAAQLGVEPNTPLGQAYLIPYGNQVQFQLGYKGLIDLAYRSGEVQSLQAHEVYQNDTFEYELGLNPKLKHIPALTNRGDVILYYAVIKFKNGGEGFEVMSKEDVEAFAKSKSKTYGRGPWQTDFDEMAKKTVLKKVLKYAPMKTDFIRAVATDETVKSSVAEQMADLPDETVTIDTEAQVVVDKETGEVKS
modifications: Veillonellaceae bacterium DNF00626
- Cas9 with SSAP activity (gene editing with Cas9): 1.888
- Cas9 with SSAP activity (normalized) (gene editing with Cas9): 0.942
- dCas9 with SSAP activity (gene editing with dCas9): −3.690
- dCas9 with SSAP activity (normalized) (gene editing with dCas9): −0.763
- Activity across all experiments [1]: −0.901

B9: SSAP_1: SEQ ID NO: 172 (protein)
chain: ATNESLKNQLSTKKETGLGSAGNTIKGLMNSPAIKKRFEEVLKQRAPQYMSSIVNLVNSDINLKKCDQMSVVASCMVAATLDLPVDKNLGYAWVVPYGNKAQFQLGYKGYVQLALRTGQYKSINVIEIHEGELIDWNPLTEELKIDFSKKESDAVIGYAGYFELLNGFKKSTYWTKEQITKHKNKFSKSDFGWKKDFDAMARKTVLRNMLSKWGILSIEMQNAYTADQGIIKNEIIETGEVKENIEYIEADFESYEDNSIEEGGANE
- Cas9 with SSAP activity (gene editing with Cas9): −4.919
- Cas9 with SSAP activity (normalized) (gene editing with Cas9): −0.814
- dCas9 with SSAP activity (gene editing with dCas9): −3.622
- dCas9 with SSAP activity (normalized) (gene editing with dCas9): −0.496
- Activity across all experiments [1]: −4.270
